Laboratory results from PMC9595563.
pKd: −log10 of the molar value.

Biological target: the RBD of spike (depending on domain and variant)
Assay: ELISA

LRRC15-Fc, sequence (Q8TF66 22-538): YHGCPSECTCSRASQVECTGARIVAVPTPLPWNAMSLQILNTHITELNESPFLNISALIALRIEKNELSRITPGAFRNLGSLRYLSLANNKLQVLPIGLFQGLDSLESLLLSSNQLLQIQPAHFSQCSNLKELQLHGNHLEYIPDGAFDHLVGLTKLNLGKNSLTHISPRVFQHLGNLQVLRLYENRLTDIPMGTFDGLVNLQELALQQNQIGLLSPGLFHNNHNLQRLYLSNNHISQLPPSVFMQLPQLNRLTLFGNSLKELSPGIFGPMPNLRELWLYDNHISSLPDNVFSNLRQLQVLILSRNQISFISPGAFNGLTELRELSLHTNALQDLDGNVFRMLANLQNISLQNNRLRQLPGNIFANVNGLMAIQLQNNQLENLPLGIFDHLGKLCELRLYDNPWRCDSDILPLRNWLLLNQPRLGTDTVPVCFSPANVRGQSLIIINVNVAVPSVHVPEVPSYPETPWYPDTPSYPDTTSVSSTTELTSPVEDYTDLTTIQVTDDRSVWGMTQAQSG

LRRC15-Fc (from UniProt Q8TF66) (Fc fusion)
pKd: 6.83 to 7.37
